Key:
[1] = target: T1, recombinant MG1-MG2 domain of human C5 beta-chain (human, UniProt P01031 20-225); assay: SPR (BIACORE T200), antibody captured, MG1-MG2 domain injected, pH7.4, 37 degrees C
T1 construct: also called MG1-MG2 domain (1-225) of human C5

recombinant human C5 = target: T2, recombinant human C5 (human, UniProt P01031 20-1676); assay: SPR (BIACORE T200), ratio of kd of condition (2) and (1)
T2 construct: The same entry is used here for C5 in normal human serum in the functional rows; also called hC5; rhC5

Binder | binding result [1] | pH dependency (ratio of dissociation rate at pH5.8 to that at pH7.4) (recombinant human C5)
eculizumab-F760G4 (antibody, human IgG4 S228P, kappa) heavy: not shown light: DIQMTQSPSSLSASVGDRVTITCGASENIYGALNWYQQKPGKAPKLLIYGATNLADGVPSRFSGSGSGTDFTLTISSLQPEDFATYYCQNVLNTPLTFGQGTKVEIKRTVAAPSVFIFPPSDEQLKSGTASVVCLLNNFYPREAKVQWKVDNALQSGNSQESVTEQDSKDSTYSLSSTLTLSKADYEKHKVYACEVTHQGLSSPVTKSFNRGEC | no binding (tested: 20 nM and 40 nM) | –
305LO20-SG115 (antibody) heavy: QVQLVESGGGLVQPGGSLRLSCAASGFTVHSSYYMAWVRQAPGKGLEWVGAIFTGSGAEYKAEWAKGRVTISKDTSKNQVVLTMTNMDPVDTATYYCASDAGYDYPTHAMHYWGQGTLVTVSSASTKGPSVFPLAPSSKSTSGGTAALGCLVKDYFPEPVTVSWNSGALTSGVHTFPAVLQSSGLYSLSSVVTVPSSSLGTQTYICNVNHKPSNTKVDKKVEPKSCDKTHTCPPCPAPELRRGPKVFLFPPKPKDTLMISRTPEVTCVVVDVSHEDPEVKFNWYVDGVEVHNAKTKPREEQYNSTYRVVSVLTVLHQDWLNGKEYKCKVSNKGLPSSIEKTISKAKGQPREPQVYTLPPSREEMTKNQVSLTCLVKGFYPSDIAVEWESNGQPENNYKTTPPVLDSDGSFFLYSKLTVDKSRWQQGNVFSCSVLHEALHAHYTRKELSLSP light: DIQMTQSPSSLSASVGDRVTITCRASQGISSSLAWYQQKPGQAPRLLIYGASETESGVPSRFSGSGSGTDFTLTISSLQPEDFATYYCQNTKVGSSYGNTFGGGTKVEIKRTVAAPSVFIFPPSDEQLKSGTASVVCLLNNFYPREAKVQWKVDNALQSGNSQESVTEQDSKDSTYSLSSTLTLSKADYEKHKVYACEVTHQGLSSPVTKSFNRGEC | – | 17.5
305LO20-SG422 (antibody) heavy: QVQLVESGGGLVQPGGSLRLSCAASGFTVHSSYYMAWVRQAPGKGLEWVGAIFTGSGAEYKAEWAKGRVTISKDTSKNQVVLTMTNMDPVDTATYYCASDAGYDYPTHAMHYWGQGTLVTVSSASTKGPSVFPLAPCSRSTSGGTAALGCLVKDYFPEPVTVSWNSGALTSGVHTFPAVLQSSGLYSLSSVVTVPSSSLGTKTYTCNVDHKPSNTKVDKRVESKYGPPCPPCPAPEFRRGPKVFLFPPKPKDTLMISRTPEVTCVVVDVSHEDPEVKFNWYVDGVEVHNAKTKPREEQYNSTYRVVSVLTVLHQDWLNGKEYKCKVSNKGLPSSIEKTISKAKGQPREPQVYTLPPSREEMTKNQVSLTCLVKGFYPSDIAVEWESNGQPENNYKTTPPVLDSDGSFFLYSKLTVDKSRWQQGNVFSCSVLHEALHAHYTRKELSLSP light: DIQMTQSPSSLSASVGDRVTITCRASQGISSSLAWYQQKPGQAPRLLIYGASETESGVPSRFSGSGSGTDFTLTISSLQPEDFATYYCQNTKVGSSYGNTFGGGTKVEIKRTVAAPSVFIFPPSDEQLKSGTASVVCLLNNFYPREAKVQWKVDNALQSGNSQESVTEQDSKDSTYSLSSTLTLSKADYEKHKVYACEVTHQGLSSPVTKSFNRGEC | – | 17.3
305LO23-SG115 (antibody, V domains shown) VH: QVQLVESGGGLVQPGGSLRLSCAASGFTVHSSYYMAWVRQAPGKGLEWVSGIFTGSGATYKAEWAKGRVTISKDTSKNQVVLTMTNMDPVDTATYYCASDAGYDYPTHAMHYWGQGTLVTVSS VL: DIQMTQSPSSLSASVGDRVTITCRASQGISSSLAWYQQKPGQAPRLLIYGASTTQSGVPSRFSGSGSGTDFTLTISSLQPEDFATYYCQNTKVGSSYGNTFGGGTKVEIKR | – | 20.2

— patent EP4785956A2 (CHUGAI SEIYAKU KABUSHIKI KAISHA, dated 2026)
